Source: patent US20240392013A1 (STELEXIS THERAPEUTICS, published 2024)
Where a chain is given by its changes, count along the chain named.

T1: recombinant mouse IL1RAP protein (Sino Biological, Cat #52657-M08H) (mouse, UniProt Q61730 21-359)
T1 construct: Bought protein
T1 sequence (looked up): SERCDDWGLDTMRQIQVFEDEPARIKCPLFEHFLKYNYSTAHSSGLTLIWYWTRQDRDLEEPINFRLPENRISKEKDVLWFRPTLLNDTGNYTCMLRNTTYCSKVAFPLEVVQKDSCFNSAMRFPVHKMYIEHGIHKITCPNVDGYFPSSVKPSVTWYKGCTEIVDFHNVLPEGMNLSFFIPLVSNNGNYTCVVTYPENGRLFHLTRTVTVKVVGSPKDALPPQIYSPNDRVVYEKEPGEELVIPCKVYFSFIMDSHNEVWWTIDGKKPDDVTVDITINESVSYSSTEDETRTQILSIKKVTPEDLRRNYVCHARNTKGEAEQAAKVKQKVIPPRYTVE

T2: recombinant human IL1RAP protein, extracellular domain His-tagged (Sino Biological, Cat #10121-H08H) (human, UniProt Q9NPH3 21-367)
T2 construct: extracellular domain; Bought protein; The Octet analyte is printed as huIL1RAP-His (Sino Biological, lot MB08MA1301) without a catalogue number; also called huIL1RAP-His; hIL1RAP; not shown: His tag
T2 sequence (looked up): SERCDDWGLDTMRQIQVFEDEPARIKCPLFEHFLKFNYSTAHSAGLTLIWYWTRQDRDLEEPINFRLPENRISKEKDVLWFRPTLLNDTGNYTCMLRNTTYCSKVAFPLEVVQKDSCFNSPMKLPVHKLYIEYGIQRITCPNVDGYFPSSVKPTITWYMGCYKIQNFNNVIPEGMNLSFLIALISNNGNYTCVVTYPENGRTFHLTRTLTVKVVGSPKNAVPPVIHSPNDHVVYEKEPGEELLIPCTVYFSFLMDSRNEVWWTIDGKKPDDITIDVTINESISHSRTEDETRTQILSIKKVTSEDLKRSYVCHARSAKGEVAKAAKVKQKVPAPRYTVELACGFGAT

T3: cyIL1RAP-His (Lake Pharma) (cynomolgus monkey, UniProt A0A2K5X5J5 21-367)
T3 construct: Bought protein (Lake Pharma, lot 16205819371); also called cynomolgus IL1RAP; monkey IL1RAP; not shown: His tag
T3 sequence: T2 sequence (looked up) with L183F, T273P, K326T

T4: IL1RAP on HEK-Blue IL1β / HEK-Blue IL33 reporter cells (UniProt Q9NPH3 21-570, limits assumed)
T4 sequence (looked up): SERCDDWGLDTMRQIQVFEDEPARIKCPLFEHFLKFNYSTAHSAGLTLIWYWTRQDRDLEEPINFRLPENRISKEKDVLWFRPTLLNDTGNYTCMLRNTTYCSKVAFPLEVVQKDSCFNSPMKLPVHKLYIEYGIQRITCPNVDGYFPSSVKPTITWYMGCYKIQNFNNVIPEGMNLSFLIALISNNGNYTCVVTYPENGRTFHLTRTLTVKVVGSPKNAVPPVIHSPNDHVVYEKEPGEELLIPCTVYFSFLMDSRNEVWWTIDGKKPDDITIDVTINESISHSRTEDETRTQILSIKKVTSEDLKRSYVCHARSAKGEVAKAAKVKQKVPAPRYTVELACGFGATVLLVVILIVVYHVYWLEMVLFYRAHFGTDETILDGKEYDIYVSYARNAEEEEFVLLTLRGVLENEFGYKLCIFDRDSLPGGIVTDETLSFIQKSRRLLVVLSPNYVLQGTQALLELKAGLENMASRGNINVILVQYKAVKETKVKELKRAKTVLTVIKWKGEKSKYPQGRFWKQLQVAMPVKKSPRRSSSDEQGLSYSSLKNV

B1: STLX2018 (antibody, V domains shown)
VH: QVQLVQSGAEVKKPGASVKVSCKTSGYTFTSCCMHWVRQAPGQGLEWMGIINPSVGSTSYAQKFQGIVTMTRDTSTSTVYMELSSLRSEDTAVYYCAVDSSGSRYYYGMDVWGQGTTVTVSS
VL: EIVMTQSPATLSVSPGERATLSCRASQSVRSNLAWYQQRPGQAPRLLIYGTSTRATGIPARFSGSGSGTEFTLTISSLQSEDFAVYYCQQYNYWPYTFGQGTKLEIK
notes: Purified from hybridoma of immunized Alivamab mice; intact IgG; captured on anti-mouse IgG Fc sensors in Octet; kappa light chain; also called 74804_18L05A
B2: STLX2017 (antibody, V domains shown)
VH: EVQLVQSGAEVKKPGESLKISCKGSGYSFTSYWIGWVRQMPGKGLEWMGIIWPGDSDTRYSPSFQGQVTISADKSVNTAYLQWISLKASDTAIYYCARSSGGTAMDVWGQGTTVTVSS
VL: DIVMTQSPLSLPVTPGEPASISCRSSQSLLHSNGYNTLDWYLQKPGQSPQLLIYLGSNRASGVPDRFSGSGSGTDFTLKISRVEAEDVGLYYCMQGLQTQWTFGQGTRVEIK
notes: Purified from hybridoma of immunized Alivamab mice; intact IgG; captured on anti-mouse IgG Fc sensors in Octet; kappa light chain; also called 74804_17E20A
B3: STLX2009 (antibody, V domains shown)
VH: QVQLFQSGAEVKKPGASVKVSCKASGYTFTGYYVHWVRQAPGQGLEWMGWINPNSGGTDYAQKFQGRVTMTWDTSISTAYMELSRLRSDDTAVYYCARSYYYYGMDVWGQGTTVTVSS
VL: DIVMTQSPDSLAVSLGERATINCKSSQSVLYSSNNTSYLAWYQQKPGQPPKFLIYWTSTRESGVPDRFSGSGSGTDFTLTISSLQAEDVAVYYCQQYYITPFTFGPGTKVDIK
notes: Purified from hybridoma of immunized Alivamab mice; intact IgG; captured on anti-mouse IgG Fc sensors in Octet; kappa light chain; also called 74804_09H05A

biological target: T1, recombinant mouse IL1RAP protein (Sino …); test: cell-free ELISA, mouse IL1RAP coated; data not shown
Method: Recombinant human or mouse IL1RAP proteins (Sino Biological, Beijing, China; Cat #10121-H08H and Sino Biological, Cat #52657-M08H respectively) were diluted in PBS, pH 7.4 at concentration of 1 μg/ml, coated on high-binding 384-well clear plates and incubated overnight at 4° C. Following, plates were washed 3× with 0.05% Tween-20 in PBS, pH 7.5 and then blocked with 1% BSA in PBS for 1 hour at room temperature. After 3× washes, wells were incubated with each antibody at the highest concentration of 100 nM followed by seven serial half log dilutions (in 1% BSA and 0.05% Tween-20 in PBS) for 1 hour at room temperature. Plates were then washed 3× and incubated with […] detection antibody (Medna, TX, USA; Cat #D8212, 0.5 μg/ml diluted in 0.02% Tween-20 in PBS). After 5× washes, Supersignal ELISA Pico substrate (Thermofisher, MA, USA; Cat #37069) was applied to wells and chemiluminescent signal was read on Sprectramax L for 200 ms/well. Similarly, detection with specific κ and λ antibodies was conducted to define light chain isotyping.

B1: no binding (tested: 100 nM).
B2: no binding (tested: 100 nM).
B3: no binding (tested: 100 nM).

biological target: T2, recombinant human IL1RAP protein, …; test: Octet BLI; mAb captured on anti-mouse IgG Fc sensor; huIL1RAP-His analyte
Method: (§1) Antibodies were diluted in kinetics buffer (0.1% BSA, 0.02% Tween-20 and 0.05% NaN₃ in PBS) and loaded onto 16 channel anti-mouse IgG Fc capture sensors (AMC, Cat #2001073; Sartorius, Göttingen, Germany). Human, huIL1RAP-His (Sino Biological, lot: MB08MA1301), and monkey, cyIL1RAP-His (Lake Pharma, NY, USA; lot:16205819371) proteins were titrated starting from the highest concentration of 100 nM and followed by 50 nM and 25 nM. Purified antibodies were loaded at 5 μg/ml in kinetics buffer. The experimental parameters selected to determine the kinetic constants were Baseline for 60 s, Loading of antibody to sensor for 180 s, Association of analyte to antibody for 120 s, Dissociation for 1200 s and Regeneration in 10 mM Glycine pH 1.7 for 4×30 s.
(§2) Regeneration cycle tracking was selected for 12 cycles. Binding to human and cynomolgus IL1RAP was measured and KD (M) kinetics were calculated. Also, the disassociation rate (Kdis) (1/s) and association rate (Kon) (1/Ms) kinetics were calculated (data not shown).

Going from B1 to B2, the Kd falls from 1.62 nM to 0.83 nM (2-fold). The second binds more tightly here.

For B3, the Kd was 1.64 nM.

B1 and B2 are the same in Response: 0.17 for the first, 0.17 for the second.

For B3, the Response was 0.205.

B1 and B2 are within 1.5-fold of each other in koff: 0.00037 s⁻¹ for the first, 0.000348 s⁻¹ for the second.

Work on B3 yielded a koff of 0.000272 s⁻¹.

Going from B1 to B2, the kon rises from 228000 M⁻¹ s⁻¹ to 420000 M⁻¹ s⁻¹ (1.8-fold).

For B3, the kon was 166000 M⁻¹ s⁻¹.

biological target: T3, cyIL1RAP-His (Lake Pharma); test: Octet BLI; mAb captured on anti-mouse IgG Fc sensor; cyIL1RAP-His analyte
Method: as §1, §2

Compared with B1, B2 is 5.8-fold lower in Kd: 4.32 nM for the first, 0.739 nM for the second. The second binds more tightly here.

B3 showed a Kd of 2.87 nM.

Going from B1 to B2, the Response rises from 0.168 to 0.192.

Work on B3 yielded a Response of 0.219.

Going from B1 to B2, the koff falls from 0.000954 s⁻¹ to 0.000259 s⁻¹ (3.7-fold).

Binder B3 has a koff of 0.000408 s⁻¹.

First: B1
Second: B2
The kon of the first is 1.6-fold lower: 221000 M⁻¹ s⁻¹ for the first, 351000 M⁻¹ s⁻¹ for the second.

B3 showed a kon of 142000 M⁻¹ s⁻¹.

biological target: T4, IL1RAP on HEK-Blue IL1β / HEK-Blue IL33 …; test: cell-based or functional assay

Compared with B1, B2 is higher in “IC50, HEK-BlueIL33 NFκB Reporter Assay” value: 4.81e-09 M (implied; unit not printed) for the first, 4.82e-09 M (implied; unit not printed) for the second.

B3 was tested, and the “IC50, HEK-BlueIL33 NFκB Reporter Assay” value was 1.1e-08 M (implied; unit not printed).

Going from B1 to B2, the “Max % Inhibition at 200 nM, HEK-BlueIL33 NFκB Reporter Assay” value falls from 93% to 80%.

B3 was tested, and the “Max % Inhibition at 200 nM, HEK-BlueIL33 NFκB Reporter Assay” value was 74%.

biological target: T4, IL1RAP on HEK-Blue IL1β / HEK-Blue IL33 …; test: cell-based or functional assay; remark: another data set of the same source

Going from B1 to B2, the “IC50, HEK-BlueIL1β NFκB Reporter Assay” value falls from 1.73e-09 M (implied; unit not printed) to 8.19e-10 M (implied; unit not printed).

For B3, the “IC50, HEK-BlueIL1β NFκB Reporter Assay” value was 2e-09 M (implied; unit not printed).

Compared with B1, B2 is higher in “Max % Inhibition at 200 nM, HEK-BlueIL1β NFκB Reporter Assay” value: 99% for the first, 101% for the second.

With B3 the “Max % Inhibition at 200 nM, HEK-BlueIL1β NFκB Reporter Assay” value was 99%.
